This assay has as its target T1, hGPR81 (SSTR1) (Homo sapiens, UniProt P30872).
T1 construct: in vitro transcribed RNA injected into Xenopus laevis oocytes
As to the kind of experiment: Ca^2+ efflux in oocytes injected with hGPR81 RNA. In kind it is cell-based. As to conditions: laevis oocytes injected with in vitro transcribed RNA. As for the experimental part: Since the presence of a short cytoplasmic loop connecting transmembrane segments M5-M6 is a feature of G protein-coupled receptors that bind peptide hormones and neuropeptides (E. M. Ross, 1990), peptides known to regulate hormone secretion from pancreatic islets were tested as ligands for hGPR81. Initial attempts to identify the ligand for hGPR81 by injecting RNA transcribed in vitro into fenopus laevis oocytes (Kayano et al., 1990) and assessing changes in basal or stimulated cAMP levels in response to […] [calcitonin-gene-related peptide, gastric inhibitory polypeptide, glucagon, glucagon-like peptide 1-(7-36 amide), and vasoactive intestinal peptide], or Ca^2+ efflux (Williams et al., 1988) (angiotensin II, bombesin, cholecystokinin, and vasopressin) were unsuccessful. The binding of radiolabeled peptides (galanin, glucagon and somatostatin) to COS-7 cells transiently expressing hGPR81 was attempted, as well.

T1 sequence (P30872 whole entry): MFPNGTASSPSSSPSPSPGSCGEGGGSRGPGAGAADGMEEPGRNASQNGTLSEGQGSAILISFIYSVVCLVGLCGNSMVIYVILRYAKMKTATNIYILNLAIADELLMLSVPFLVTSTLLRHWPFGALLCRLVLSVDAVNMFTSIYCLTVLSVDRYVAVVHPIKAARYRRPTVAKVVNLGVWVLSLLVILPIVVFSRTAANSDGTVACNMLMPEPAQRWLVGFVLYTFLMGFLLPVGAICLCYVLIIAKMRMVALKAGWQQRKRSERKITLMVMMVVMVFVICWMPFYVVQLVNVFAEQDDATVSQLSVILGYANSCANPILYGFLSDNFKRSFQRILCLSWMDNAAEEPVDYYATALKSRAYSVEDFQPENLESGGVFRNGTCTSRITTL

B1: cholecystokinin: peptide known to regulate hormone secretion from pancreatic islets (peptide, UniProt P06307 21-115, looked up)
Cholecystokinin: QPVPPADPAGSGLQRAEEAPRRQLRVSQRTDGESRAHLGALLARYIQQARKAPSGRMSIVKNLQNLDPSHRISDRDYMGWMDFGRRSAEEYEYPS
modifications: Cholecystokinin
notes: peptide known to regulate hormone secretion from pancreatic islets
On to B1, for which the “identification as ligand for hGPR81 by Ca^2+ efflux” value is on record as “unsuccessful”.

These data come from US5723299A, “Somatostatin receptors” (Arch Development Corporation, priority 1995, dated 1998).
